From paper PMC7266993, “STAG1 vulnerabilities for exploiting cohesin synthetic lethality in STAG2-deficient cancers” (Life Science Alliance, 2020)

Experiments:
[1] = molecular target: T1, Biotinylated RAD21 peptide, residues 356-395 (Biotin-Ttds-RAD21 356-395) (human, N-terminal biotin followed by a trioxatridecan–succinamic acid spacer (Biotin-Ttds-)); experiment: SPR; Biacore S200, SA chip, biotinylated RAD21 356-395 immobilised; STAG1 as analyte, equilibrium analysis (650 s association, 1,200 s dissociation), dose-response fit; 10 mM Hepes pH 7.5, 150 mM NaCl, 0.5 mM TCEP; apparent; details: both partners purified
T1 construct: Immobilised on a streptavidin (SA) sensor chip through the biotin; source: synthetic peptide, purchased
T1 peptide: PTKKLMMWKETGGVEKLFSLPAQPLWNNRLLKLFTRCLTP

[2] = molecular target: T1, Biotinylated RAD21 peptide, residues …; experiment: SPR; Biacore S200, SA chip, ~400 RU biotinylated RAD21 356-395 immobilised; STAG1 as analyte, single cycle kinetics 7.5-1,000 nM, 120 s injections; 10 mM Hepes pH 7.5, 150 mM NaCl, 0.5 mM TCEP; 1:1 binding model; details: both partners purified

Kd [1]: 148 ± 22 nM | Kd [2]: 127 nM | koff [2]: 0.00709 s⁻¹ | kon [2]: 55900 M⁻¹ s⁻¹
B1: STAG1 central region, wild type, as used in surface plasmon resonance (residues 415-915 as printed in the results) (domain or fragment)
chain: NVYHLVYSAHRPVAVAAGEFLHKKLFSRHDPQAEEALAKRRGRNSPNGNLIRMLVLFFLESELHEHAAYLVDSLWESSQELLKDWECMTELLLEEPVQGEEAMSDRQESALIELMVCTIRQAAEAHPPVGRGTGKRVLTAKERKTQIDDRNKLTEHFIITLPMLLSKYSADAEKVANLLQIPQYFDLEIYSTGRMEKHLDALLKQIKFVVEKHVESDVLEACSKTYSILCSEEYTIQNRVDIARSQLIDEFVDRFNHSVEDLLQEGEEADDDDIYNVLSTLKRLTSFHNAHDLTKWDLFGNCYRLLKTGIEHGAMPEQIVVQALQCSHYSILWQLVKITDGSPSKEDLLVLRKTVKSFLAVCQQCLSNVNTPVKEQAFMLLCDLLMIFSHQLMTGGREGLQPLVFNPDTGLQSELLSFVMDHVFIDQDEENQSMEGDEEDEANKIEALHKRRNLLAAFSKLIIYDIVDMHAAADIFKHYMKYYNDYGDIIKETLSKTRQID
